Reference: patent US20230250154A1 (CYTONICS, published 2023)
Residue numbers refer to the chain shown, from its start. Names and notes keep the numbering of the source.

T1: MMP1 (human, UniProt P03956 100-469, limits assumed)
T1 sequence (looked up): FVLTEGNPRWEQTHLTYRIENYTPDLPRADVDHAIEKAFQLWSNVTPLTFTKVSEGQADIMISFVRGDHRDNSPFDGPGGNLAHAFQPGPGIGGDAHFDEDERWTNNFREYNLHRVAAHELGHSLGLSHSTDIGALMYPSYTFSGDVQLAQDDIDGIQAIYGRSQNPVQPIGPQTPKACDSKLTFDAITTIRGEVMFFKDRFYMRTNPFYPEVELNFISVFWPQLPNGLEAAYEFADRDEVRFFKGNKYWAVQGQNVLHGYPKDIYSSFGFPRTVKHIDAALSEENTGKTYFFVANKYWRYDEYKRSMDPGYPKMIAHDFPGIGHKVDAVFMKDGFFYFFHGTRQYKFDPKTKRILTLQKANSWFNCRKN

T2: ADAMTS4 (human, UniProt O75173 213-685, limits assumed)
T2 sequence (looked up): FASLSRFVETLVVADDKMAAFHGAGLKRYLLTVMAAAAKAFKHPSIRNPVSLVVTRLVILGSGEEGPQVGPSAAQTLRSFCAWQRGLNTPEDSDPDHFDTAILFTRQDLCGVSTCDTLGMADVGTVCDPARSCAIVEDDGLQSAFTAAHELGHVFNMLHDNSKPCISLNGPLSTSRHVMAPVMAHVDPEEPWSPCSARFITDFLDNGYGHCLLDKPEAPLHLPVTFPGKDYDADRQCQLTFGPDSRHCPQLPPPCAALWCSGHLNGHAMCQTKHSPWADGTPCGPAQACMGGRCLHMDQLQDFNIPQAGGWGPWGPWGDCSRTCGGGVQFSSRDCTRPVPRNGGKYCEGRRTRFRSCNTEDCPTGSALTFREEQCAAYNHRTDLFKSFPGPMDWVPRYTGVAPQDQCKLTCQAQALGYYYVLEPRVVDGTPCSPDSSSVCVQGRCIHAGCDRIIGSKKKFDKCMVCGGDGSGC

T3: MMP2 (human, UniProt P08253 110-660, limits assumed)
T3 sequence (looked up): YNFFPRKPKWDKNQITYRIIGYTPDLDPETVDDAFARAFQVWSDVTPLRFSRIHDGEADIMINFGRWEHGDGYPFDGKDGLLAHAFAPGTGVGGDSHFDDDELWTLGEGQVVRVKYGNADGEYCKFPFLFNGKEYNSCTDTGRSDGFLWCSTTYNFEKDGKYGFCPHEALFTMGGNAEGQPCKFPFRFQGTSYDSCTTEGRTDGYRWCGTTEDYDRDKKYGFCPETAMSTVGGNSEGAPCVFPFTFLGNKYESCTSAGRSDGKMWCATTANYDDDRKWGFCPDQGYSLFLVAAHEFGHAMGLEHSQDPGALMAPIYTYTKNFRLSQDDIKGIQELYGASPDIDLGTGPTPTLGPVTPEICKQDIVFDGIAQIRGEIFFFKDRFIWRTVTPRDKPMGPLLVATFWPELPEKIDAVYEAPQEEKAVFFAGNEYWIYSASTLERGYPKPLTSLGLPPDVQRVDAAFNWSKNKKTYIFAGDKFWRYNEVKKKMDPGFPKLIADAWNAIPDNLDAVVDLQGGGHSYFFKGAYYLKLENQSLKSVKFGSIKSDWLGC

T4: ADAMTS5 (human, UniProt Q9UNA0 262-622, limits assumed)
T4 sequence (looked up): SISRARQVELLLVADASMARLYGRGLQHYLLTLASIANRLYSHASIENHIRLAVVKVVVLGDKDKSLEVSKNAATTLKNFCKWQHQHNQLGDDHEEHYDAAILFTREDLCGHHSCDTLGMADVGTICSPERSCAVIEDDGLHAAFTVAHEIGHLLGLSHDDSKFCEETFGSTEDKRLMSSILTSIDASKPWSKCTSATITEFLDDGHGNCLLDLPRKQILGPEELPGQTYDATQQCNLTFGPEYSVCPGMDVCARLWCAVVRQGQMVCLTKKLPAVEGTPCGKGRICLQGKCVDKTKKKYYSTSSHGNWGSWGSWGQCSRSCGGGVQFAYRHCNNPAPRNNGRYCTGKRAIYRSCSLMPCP

B1: Variant A2M, bait region SEQ ID NO 92 (other)
chain: SVSGKPQYMVLVPSLLHTETTEKGCVLLSYLNETVTVSASLESVRGNRSLFTDLEAENDVLHCVAFAVPKSSSNEEVMFLTVQVKGPTQEFKKRTTVMVKNEDSLVFVQTDKSIYKPGQTVKFRVVSMDENFHPLNELIPLVYIQDPKGNRIAQWQSFQLEGGLKQFSFPLSSEPFQGSYKVVVQKKSGGRTEHPFTVEEFVLPKFEVQVTVPKIITILEEEMNVSVCGLYTYGKPVPGHVTVSICRKYSDASDCHGEDSQAFCEKFSGQLNSHGCFYQQVKTKVFQLKRKEYEMKLHTEAQIQEEGTVVELTGRQSSEITRTITKLSFVKVDSHFRQGIPFFGQVRLVDGKGVPIPNKVIFIRGNEANYYSNATTDEHGLVQFSINTTNVMGTSLTVRVNYKDRSPCYGYQWVSEEHEEAHHTAYLVFSPSKSFVHLEPMSHELPCGHTQTVQAHYILNGGTLLGLKKLSFYYLIMAKGGIVRTGTHGLLVKQEDMKGHFSISIPVKSDIAPVARLLIYAVLPTGDVIGDSAKYDVENCLANKVDLSFSPSQSLPASHAHLRVTAAPQSVCALRAVDQSVLLMKPDAELSASSVYNLLPEKDLTGFPGPLNDQDDEDCINRHNVYINGITYTPVSSTNEKDMYSFLEDMGLKAFTNSKIRKPKMCPQLEQYEMHGPEGLRVGTAQEAGEGFYESDVMGRGHARLVHVEEPHTKLLRKYFPETWIWDLVVVNSAGVAEVGVTVPDTITEWKAGAFCLSEDAGLGISSTASLRAFQPFFVELTMPYSVIRGEAFTLKATVLNYLPKCIRVSVQLEASPAFLAVPVEKEQAPHCICANGRQTVSWAVTPKSLGNVNFTVSAEALESQELCGTEVPSVPEHGRKDTVIKPLLVEPEGLEKETTFNSLLCPSGGEVSEELSLKLPPNVVEESARASVSVLGDILGSAMQNTQNLLQMPYGCGEQNMVLFAPNIYVLDYLNETQQLTPEIKSKAIGYLNTGYQRQLNYKHYDGSYSTFGERYGRNQGNTWLTAFVLKTFAQARAYIFIDEAHITQALIWLSQRQKDNGCFRSSGSLLNNAIKGGVEDEVTLSAYITIALLEIPLTVTHPVVRNALFCLESAWKTAQEGDHGSHVYTKALLAYAFALAGNQDKRKEVLKSLNEEAVKKDNSVHWERPQKPKAPVGHFYEPQAPSAEVEMTSYVLLAYLTAQPAPTSEDLTSATNIVKWITKQQNAQGGFSSTQDTVVALHALSKYGAATFTRTGKAAQVTIQSSGTFSSKFQVDNNNRLLLQQVSLPELPGEYSMKVTGEGCVYLQTSLKYNILPEKEEFPFALGVQTLPQTCDEPKAHTSFQISLSVSYTGSRSASNMAIVDVKMVSGFIPLKPTVKMLERSNHVSRTEVSSNHVLIYLDKVSNQTLSLFFTVLQDVPVRDLKPAIVKVYDYYETDEFAIAEYNAPCSKDLGNADYKDDDDKGASHHHHHH
B2: Variant A2M, bait region SEQ ID NO 100 (other)
chain: B1 chain with T684G, A685E, Q686P, A688G, G689A, E690K
B3: Variant A2M, bait region SEQ ID NO 87 (other)
chain: SVSGKPQYMVLVPSLLHTETTEKGCVLLSYLNETVTVSASLESVRGNRSLFTDLEAENDVLHCVAFAVPKSSSNEEVMFLTVQVKGPTQEFKKRTTVMVKNEDSLVFVQTDKSIYKPGQTVKFRVVSMDENFHPLNELIPLVYIQDPKGNRIAQWQSFQLEGGLKQFSFPLSSEPFQGSYKVVVQKKSGGRTEHPFTVEEFVLPKFEVQVTVPKIITILEEEMNVSVCGLYTYGKPVPGHVTVSICRKYSDASDCHGEDSQAFCEKFSGQLNSHGCFYQQVKTKVFQLKRKEYEMKLHTEAQIQEEGTVVELTGRQSSEITRTITKLSFVKVDSHFRQGIPFFGQVRLVDGKGVPIPNKVIFIRGNEANYYSNATTDEHGLVQFSINTTNVMGTSLTVRVNYKDRSPCYGYQWVSEEHEEAHHTAYLVFSPSKSFVHLEPMSHELPCGHTQTVQAHYILNGGTLLGLKKLSFYYLIMAKGGIVRTGTHGLLVKQEDMKGHFSISIPVKSDIAPVARLLIYAVLPTGDVIGDSAKYDVENCLANKVDLSFSPSQSLPASHAHLRVTAAPQSVCALRAVDQSVLLMKPDAELSASSVYNLLPEKDLTGFPGPLNDQDDEDCINRHNVYINGITYTPVSSTNEKDMYSFLEDMGLKAFTNSKIRKPKMCPQLEQYEMHGPEGLRVGKEEEGLGSSELEGRGSTAQEAGEGKLRKYFPETWIWDLVVVNSAGVAEVGVTVPDTITEWKAGAFCLSEDAGLGISSTASLRAFQPFFVELTMPYSVIRGEAFTLKATVLNYLPKCIRVSVQLEASPAFLAVPVEKEQAPHCICANGRQTVSWAVTPKSLGNVNFTVSAEALESQELCGTEVPSVPEHGRKDTVIKPLLVEPEGLEKETTFNSLLCPSGGEVSEELSLKLPPNVVEESARASVSVLGDILGSAMQNTQNLLQMPYGCGEQNMVLFAPNIYVLDYLNETQQLTPEIKSKAIGYLNTGYQRQLNYKHYDGSYSTFGERYGRNQGNTWLTAFVLKTFAQARAYIFIDEAHITQALIWLSQRQKDNGCFRSSGSLLNNAIKGGVEDEVTLSAYITIALLEIPLTVTHPVVRNALFCLESAWKTAQEGDHGSHVYTKALLAYAFALAGNQDKRKEVLKSLNEEAVKKDNSVHWERPQKPKAPVGHFYEPQAPSAEVEMTSYVLLAYLTAQPAPTSEDLTSATNIVKWITKQQNAQGGFSSTQDTVVALHALSKYGAATFTRTGKAAQVTIQSSGTFSSKFQVDNNNRLLLQQVSLPELPGEYSMKVTGEGCVYLQTSLKYNILPEKEEFPFALGVQTLPQTCDEPKAHTSFQISLSVSYTGSRSASNMAIVDVKMVSGFIPLKPTVKMLERSNHVSRTEVSSNHVLIYLDKVSNQTLSLFFTVLQDVPVRDLKPAIVKVYDYYETDEFAIAEYNAPCSKDLGNADYKDDDDKGASHHHHHH

biological target: T1, MMP1; test: cell-based or functional assay

Binder | Protease Inhibition (% of WT)
B1 | 170 % of WT
B2 | 40 % of WT
B3 | 150 % of WT

biological target: T2, ADAMTS4; test: cell-based or functional assay

Binder | Protease Inhibition (% of WT)
B1 | 210 % of WT
B2 | 50 % of WT
B3 | 160 % of WT

biological target: MMP13 (human, UniProt P45452 104-471, limits assumed); test: cell-based or functional assay

Binder | Protease Inhibition (% of WT)
B1 | 90 % of WT
B2 | 210 % of WT
B3 | 150 % of WT

biological target: T3, MMP2; test: cell-based or functional assay

Binder | Protease Inhibition (% of WT)
B1 | 110 % of WT
B2 | 110 % of WT
B3 | 100 % of WT

biological target: T4, ADAMTS5; test: cell-based or functional assay

Binder | Protease Inhibition (% of WT)
B1 | 250 % of WT
B2 | 400 % of WT
B3 | 170 % of WT

biological target: MMP8 (human, UniProt P22894 101-467, limits assumed); test: cell-based or functional assay
Sequence (P22894 101-467 limits assumed): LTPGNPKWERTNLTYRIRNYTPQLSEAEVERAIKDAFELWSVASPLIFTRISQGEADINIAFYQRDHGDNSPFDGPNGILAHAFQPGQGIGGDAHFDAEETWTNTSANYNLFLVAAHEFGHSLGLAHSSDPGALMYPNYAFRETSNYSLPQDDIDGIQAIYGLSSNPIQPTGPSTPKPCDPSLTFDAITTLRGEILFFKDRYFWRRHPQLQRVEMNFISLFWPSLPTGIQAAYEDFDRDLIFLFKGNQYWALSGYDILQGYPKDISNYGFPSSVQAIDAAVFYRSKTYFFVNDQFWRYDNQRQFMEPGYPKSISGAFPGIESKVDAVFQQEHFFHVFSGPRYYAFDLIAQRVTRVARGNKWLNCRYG

Binder | Protease Inhibition (% of WT)
B1 | 160 % of WT
B2 | 20 % of WT
B3 | 40 % of WT

biological target: MMP3 (human, UniProt P08254 100-477, limits assumed); test: cell-based or functional assay
Sequence (P08254 100-477 limits assumed): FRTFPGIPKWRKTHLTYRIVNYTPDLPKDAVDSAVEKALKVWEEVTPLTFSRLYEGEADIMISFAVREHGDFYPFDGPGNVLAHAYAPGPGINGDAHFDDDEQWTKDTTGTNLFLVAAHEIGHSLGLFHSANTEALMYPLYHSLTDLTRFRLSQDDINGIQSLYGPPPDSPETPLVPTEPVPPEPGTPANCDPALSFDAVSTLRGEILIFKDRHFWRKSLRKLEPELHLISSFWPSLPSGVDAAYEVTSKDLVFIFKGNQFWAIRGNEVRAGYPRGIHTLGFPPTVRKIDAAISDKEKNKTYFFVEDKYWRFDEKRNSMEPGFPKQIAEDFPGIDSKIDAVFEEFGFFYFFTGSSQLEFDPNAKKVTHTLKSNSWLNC

Binder | Protease Inhibition (% of WT)
B1 | 80 % of WT
B2 | 50 % of WT
B3 | 40 % of WT

biological target: MMP9 (human, UniProt P14780 107-707, limits assumed); test: cell-based or functional assay
Sequence (P14780 107-707 limits assumed): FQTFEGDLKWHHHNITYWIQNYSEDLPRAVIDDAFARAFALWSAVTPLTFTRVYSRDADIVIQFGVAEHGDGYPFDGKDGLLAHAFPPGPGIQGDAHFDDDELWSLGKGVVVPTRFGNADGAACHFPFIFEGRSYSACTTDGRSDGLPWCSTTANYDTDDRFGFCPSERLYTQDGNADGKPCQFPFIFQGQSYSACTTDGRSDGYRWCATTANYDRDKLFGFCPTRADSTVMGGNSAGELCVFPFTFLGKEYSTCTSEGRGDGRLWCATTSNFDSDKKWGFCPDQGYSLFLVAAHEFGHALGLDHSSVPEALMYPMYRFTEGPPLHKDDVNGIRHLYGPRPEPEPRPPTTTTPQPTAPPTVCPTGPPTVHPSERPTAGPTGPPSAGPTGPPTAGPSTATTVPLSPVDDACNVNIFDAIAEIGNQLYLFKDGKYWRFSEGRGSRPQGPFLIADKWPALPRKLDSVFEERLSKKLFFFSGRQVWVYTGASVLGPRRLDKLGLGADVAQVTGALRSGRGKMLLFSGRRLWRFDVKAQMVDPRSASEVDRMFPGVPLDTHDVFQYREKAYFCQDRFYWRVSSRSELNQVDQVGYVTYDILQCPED

Binder | Protease Inhibition (% of WT)
B1 | 50 % of WT
B2 | 50 % of WT
B3 | 70 % of WT
